In US20190169289A1:

Assays:
[1] = target: anti-GCN4 (52SR4 scFv) sCAR with CD8 hinge; test: flow cytometry of CD8 sCAR T cells; filled histogram with a second peak at about 10^4 against a dashed control histogram; the legend names an AF647 conjugate, the axis prints APC
CART19 = test: flow cytometry of CART19 T cells; filled histogram with a second population at about 10^3-10^4 against a dashed control histogram; the legend names an AF647 conjugate, the axis prints APC
[2] = target: HLA molecules on T2 cells loaded with the NY-ESO-1 peptide; test: cell-based or functional assay

Chain of CART19 (chimeric antigen receptor, as listed by the source limits assumed): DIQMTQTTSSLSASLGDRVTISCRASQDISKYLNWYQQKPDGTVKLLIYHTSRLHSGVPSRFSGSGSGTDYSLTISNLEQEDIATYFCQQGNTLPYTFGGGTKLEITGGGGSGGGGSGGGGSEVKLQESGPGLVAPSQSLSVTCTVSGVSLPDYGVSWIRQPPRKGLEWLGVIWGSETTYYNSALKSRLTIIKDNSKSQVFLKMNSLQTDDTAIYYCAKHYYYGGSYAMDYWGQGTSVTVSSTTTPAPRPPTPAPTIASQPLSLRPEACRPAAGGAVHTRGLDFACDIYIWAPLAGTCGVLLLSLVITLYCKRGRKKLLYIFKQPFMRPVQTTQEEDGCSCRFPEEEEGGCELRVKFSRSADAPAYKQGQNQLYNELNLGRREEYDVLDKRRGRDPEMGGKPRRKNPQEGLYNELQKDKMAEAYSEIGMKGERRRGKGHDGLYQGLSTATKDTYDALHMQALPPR
Chain of anti-GCN4 (52SR4 scFv) sCAR with CD8 hinge (chain, as listed by the source limits assumed): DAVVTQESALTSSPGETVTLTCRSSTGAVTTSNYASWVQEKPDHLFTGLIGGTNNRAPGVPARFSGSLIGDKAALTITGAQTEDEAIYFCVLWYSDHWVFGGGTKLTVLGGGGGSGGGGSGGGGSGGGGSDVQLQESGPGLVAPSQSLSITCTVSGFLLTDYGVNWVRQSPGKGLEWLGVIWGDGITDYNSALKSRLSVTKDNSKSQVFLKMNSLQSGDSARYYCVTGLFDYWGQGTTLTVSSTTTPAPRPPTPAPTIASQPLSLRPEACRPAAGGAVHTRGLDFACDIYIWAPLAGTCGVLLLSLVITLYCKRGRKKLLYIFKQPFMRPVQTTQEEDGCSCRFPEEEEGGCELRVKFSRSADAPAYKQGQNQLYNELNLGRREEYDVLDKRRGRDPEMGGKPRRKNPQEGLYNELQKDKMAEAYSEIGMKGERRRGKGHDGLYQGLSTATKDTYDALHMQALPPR

| Substance | number beside the gate bar of the histogram (share of cells in the positive gate; name not given) [1] | number beside the gate bar of the histogram (share of cells in the positive gate; name not given) (CART19) | sTCR switch concentration at which IFNg, IL-2 and TNFa are produced [2] [pM] | sTCR switch concentration at which T cells express CD25 and CD69 [2] [pM] |
| --- | --- | --- | --- | --- |
| APC-conjugated goat-anti mouse IgG (H&L) polyclonal antibody | 69.3 | 53.3 |  |  |
| NY-ESO-1 specific soluble TCR 1G4c113 with C-terminal GCN4 peptide and 6x HIS tag on the beta chain |  |  | > 10 | > 1 |
